Laboratory results reported in the DeepSol protein solubility set.

assay: soluble on expression in E. coli; label from the status in PepcDB or PDB records

Sequence | soluble on expression in E. coli
MGSDKIHHHHHHMNNTPTPPKVLLLLTSLHGGGAERVAVHLLNRLQGRFDMRMGLLRASGPYLDQADRSRLIVAPEGETHFNFDGPNSANYRPGKLVGSAVRAPLAFRRMIRETQPDVVLSFLKGTNLLVWLALMNMGRARPRWIAREGNNVLAVIREEAPNGAVARASRDLTAKAYRRADAVLANSTDMAAGLITDLDLDPAKMRMINNPIDIDGIREAAGESLPGAPNRPFILTAGRLEYQKAHEVLLRAFARSEAWRTHALVILGKGSRLGELHRLAAQLGIGEYVRFIGFVPNPYAWMARADLFVLPSRWEGFPTVAAEAMACGTPLLLTDCRFGARDIVEPGVTGELVPVNDEAALATEIAALLASPERRSALARAGREKVERFRLERMLEAYAALFDEQFAARRR | not soluble
MGSDKIHHHHHHMAETAPAPYFSEIARGPDQVEAHWLTTQDGQRIRAGLWRSHGPSAGTILLFPGRTEYIEKYGPLAIDLTDRGFDVLTVDWRGQGLADRSLSDGRLGHVAEFGAFQLDVAALVAHAEALNLPRPWYLLGHSMGGAIGLRALHEGLPVAACAFTAPMWAIRIPFALRPAARLLARFGTALGVSEKLVPTTTIEQYVQVTPFEGNTLTNDPEMYAFLQMQMTQHPELALGGPTVQWLSQAMLECADLRARPSPDVPCVTFLGENEQIVATEAIHDRMARWPSGKLEMIPDAQHEILMEIPQTRRQTCAILTAHFKKHV | not soluble
MSLHEMSFAEAIIRNVLRFAEEKQAKTVTSVRVRVGELLLINPEQLQFCFSVASKGTIAEGAKLEISVERADIRCLLCGRELSKDEMLCECGGFAQVKGGKDFILESVVVEVEGHHHHHH | soluble
MGSDKIHHHHHHGCSDSMTEESDSEQRIPIVFGTQVATRAVVENNKEGMDNFTLWGWVRESDGPKLFFDAVPVTPSGNYGEKRFWAVGRPYGFYAVHPEKMKENNIATEVSCNDKGELRVTGFDSSEMGKGAVDLMTAAKTDVVYEGGGMMAPVLLAFKHELAQVKFTVCTGEKQAEVSDIRLLGVDYKGDLLWTPEESTWQNRINCTEEGTPFVRSESVRIEAGSSVTVLDSVLLLPQPVTEHVAVTFKYAYAGKPLSEAKEAMVYLDVAQTTEWIKSSTYHYKITLPAGDADITVKVSVGDWDSRDISADW | not soluble
MGSDKIHHHHHHMTNIPFIYQYEEKENERAAAGYGTFGYLITRIEETLYDQYGVFYELYASDDPNTEYWELLVEDVRSGSLEPEHVAYIFEKLEKKTFAYDEDEKEPDYTVHKSIRNSVYAYPEKGVAFARIPYFQDGSIMSFDCLFAVNDEKMRAFLEGVRPRLWEKSKRKVTVFTDGDGGTSREQEAIVREVQRSQVIMNPLLKKEIYRSIDQFFHSDKSFYQTYDIPYKRGILLYGPPGNGKTTLVKSIAGSIDAPVAYWQITEFTSSETIEEVFQAARRLAPAVLVIEDIDSMPEDVRSFFLNTLDGATSKEGLFLIGTTNYPEEIDPGLMNRAGRFDRAYEIGLPDEELRLEYMKMRGFGIFLSEGEIKNAAKLTEGFSFAQLGELYVSSALQWHQEGNHHIETMVKDMTGEQRKSQRGSWMERNKVGFH | not soluble
MGSDKIHHHHHHMPRITQEISYNCDYGDNTFNLAIDIGGTLAKVVFSPIHSNRLMFYTIETEKIDKFMELLHSIIKEHNNGCYRMTHIIATGGGAFKFYDLLYENFPQIKGISRFEEMEGLIHGLDFFIHEIPDEVFTYNDQDGERIIPTSSGTMDSKAIYPYLLVNIGSGVSILKVTEPNNFSRVGGSSLGGGTLWGLLSLITGAQTYDQMLDWAQEGDNSSVDMLVGDIYGTDYNKIGLKSSAIASSFGKVFQNRMTSNKSLENNENKLYSSHESIEKNNGQMFKNPDICKSLLFAISNNIGQIAYLQAKINNIQNIYFGGSYTRGHLTTMNTLSYAINFWSQGSKQAFFLKHEGYLGAMGAFLSASRHSSTKKTST | not soluble
MGSDKIHHHHHHMGETNQQGVKNPLQTKEVAERQAKKEKQVVFIYYDHEPTYKLLEDQLVDQGDFELVSTNQSEDAVAILGSLSIDSVVFINTAKSKQMYQLYEKTSGSHHYLHAPFFYIGECSHEEMGQIFANGHEFISSPFNLETFYLKMKAKLDHCTRIKNDRQIDLVTQLYTERFLEKMFHLQVANLVRFKTSFTVIFLSLYNYYELKTKYGLTIADQIVATVSDYIKSQVRDSDLAFRMDAEDEIAVILPNGGQTEAGYFVRRVFEHIPPVTTTENGEPLQFFIELSASIVEINNADVTYEEMLEKGKEALQEAVFKGASTIETVNDFQEPNVEKIKVTVIVEDQVIRSVLVNLLQRLTLEYFELDVQTFFDGEALLESSWHRSAHTHIVIMDDVLPKRNGLEMVHELRKMPNNEKYIVMMLSNRKTEEDVTYAFEMGVDDYITKPFNVKFVESRLKRYLKRLR | not soluble
MGSDKIHHHHHHMTKNNEAGWNLDNSYATLPHSFYTEIPPTPVSSPELVKLNHSLAISLGFNPEELKKETEIAIFAGNALPEGAHPLAQAYAGHQFGHFNMLGDGRALLIGEQITPSGKRFDIQLKGSGPTPYSRRGDGRAALGPMLREYIISEAMYALDIPTTRSLAVVTTGEPTYRETKLPGAILTRVASSHIRVGTFQYAAARGSIEDLQSLADYTIKRHYPEIEDPENRYTALLQEVIKKQASLIAKWQLVGFIHGVMNTDNITISGETIDYGPCAFMDHYDQGTVFSSIDTQGRYAYGNQPYMAAWDLARLAESLIPILHEDEEEALKIAQDEISKFSVQYENLWFLGMKKKLGLFSNEEQDHSLIEQLLKMMEKYKADYTNTFRSLTLNTLENTPLFDSSEFKEWYKLWQSRLERQDESKENAYEMMKNNNPSIIPRNHRVEEALEAAVTNGDYSVMEKLLEALANPYAYATDQEEYCVTPAPTNRPYRTFCGT | not soluble
LAFVGLTIAIVVTETALLFRRYTALKPADLTRLINSENALVVDLSPSSDFEKGHIAGSRSVVESKFDPESNKLLLSAKQSPLVVVCRNGHISAAAAKRLKNAGFEKVYWLDGGIATWKMAEMPLIK | not soluble
KSKKAVWHKLLSKQRRRAVVACFRMTPLYN | soluble
MGSDKIHHHHHHENLYFQGMLNFTVGPVMSSEEVRAIGAEQVPYFRTTEFSSTMLENEKFMLEYAKAPEGSKAVFMTCSSTGSMEAVVMNCFTKKDKVLVIDGGSFGHRFVQLCEIHEIPYVALKLEHGKKLTKEKLYEYDNQNFTGLLVNVDETSTAVLYDTMMIGEFCKKNNMFFVCDCVSAFLADPFNMNECGADVMITGSQKVLACPPGISVIVLAPRGVERVEKSKVRTMYFDLKDALKNQERGQTPFTPAVGILLQINERLKEIKKHGGADAEVARIASQAADFRAKIKDLPFELVSESPANGVTSVHPTTANAYDIFLKLKDEYGIWICPNGGEMKDTIFRVGHIGALTHEDNTTLVNAFKDLQKRNLL | soluble
AKIGLFYGTQTGVTQTIAESIQQEFGGESIVDLNDIANADASDLNAYDYLIIGCPTWGVGELQSDWEGIYDDLDSVNFQGKKVAYFGAGDQVGYSDNFQDAMGILEEKISSLGSQTVGYWPIEGYDFNESKAVRNNQFVGLAIDEDNQPDLTKNRIKTWVSQLKSEFGL | soluble
MDNLLIQVTGKKRVVLFSPRDAQYLYLKGTKSEVLNIDNPDLAKYPLFSKARRYECSLEAGDVLFIPALWFHNVISEEFGVGVNIFWKHLPSECYDKTDTYGNKDPTAASRAAQILDRALKTLAELPEEYRDFYARRMVLHIQDKAYSKNSE | not soluble
GQDRFVYTCNECKHHVETRWHCTVCEDYDLCINCYNTKSHTHKMVKWGLGLD | soluble
LEQARTMSVDEMAANPEINRLMMARIEAAQDSLAAYEKVKYITLLAEPFTLEKGELTETMKLKRRVINEHYAEAIEKMYL | not soluble
MNNSINHKFHHISRAEYQELLAVSRGDAVADYIIDNVSILDLINGGEISGPIVIKGRYIAGVGAEYTDAPALQRIDARGATAVPGFIDAHLHIESSMMTPVTFETATLPRGLTTVICDPHEIVNVMGEAGFAWFARCAEQARQNQYLQVSSCVPALEGCDVNGASFTLEQMLAWRDHPQVTGLAEMMDYPGVISGQNALLDKLDAFRHLTLDGHCPGLGGKELNAYITAGIENCHESYQLEEGRRKLQLGMSLMIREGSAARNLNALAPLINEFNSPQCMLCTDDRNPWEIAHEGHIDALIRRLIEQHNVPLHVAYRVASWSTARHFGLNHLGLLAPGKQADIVLLSDARKVTVQQVLVKGEPIDAQTLQAEESARLAQSAPPYGNTIARQPVSASDFALQFTPGKRYRVIDVIHNELITHSHSSVYSENGFDRDDVSFIAVLERYGQRLAPACGLLGGFGLNEGALAATVSHDSHNIVVIGRSAEEMALAVNQVIQDGGGLCVVRNGQVQSHLPLPIAGLMSTDTAQSLAEQIDALKAAARECGPLPDEPFIQMAFLSLPVIPALKLTSQGLFDGEKFAFTTLEVTELEHHHHHH | soluble
MGSDKIHHHHHHMLCSVIQRQTREVSNTMSLDSYYLGFDLSTQQLKCLAINQDLKIVHSETVEFEKDLPHYHTKKGVYIHGDTIECPVAMWLEALDLVLSKYREAKFPLNKVMAVSGSCQQHGSVYWSSQAESLLEQLNKKPEKDLLHYVSSVAFARQTAPNWQDHSTAKQCQEFEECIGGPEKMAQLTGSRAHFRFTGPQILKIAQLEPEAYEKTKTISLVSNFLTSILVGHLVELEEADACGMNLYDIRERKFSDELLHLIDSSSKDKTIRQKLMRAPMKNLIAGTICKYFIEKYGFNTNCKVSPMTGDNLATICSLPLRKNDVLVSLGTSTTVLLVTDKYHPSPNYHLFIHPTLPNHYMGMICYCNGSLARERIRDELNKERENNYEKTNDWTLFNQAVLDDSESSENELGVYFPLGEIVPSVKAINKRVIFNPKTGMIEREVAKFKDKRHDAKNIVESQALSCRVRISPLLSDSNASSQQRLNEDTIVKFDYDESPLRDYLNKRPERTFFVGGASKNDAIVKKFAQVIGATKGNFRLETPNSCALGGCYKAMWSLLYDSNKIAVPFDKFLNDNFPWHVMESISDVDNENWDRYNSKIVPLSELEKTLI | not soluble
MKYSSIFSMLSFFILFACNETAVYGSDENIIFMRYVEKLHLDKYSVKNTVKTETMAIQLAEIYVRYRYGERIAEEEKPYLITELPDSWVVEGAKLPYEVAGGVFIIEINKKNGCVLNFLHSKLEHHHHHH | not soluble
HGPASRLLHRHIREQLKDLKEVSHESLVVGAVENAFQLMDEQMARERRGHQVEGGCCALVVIYLLGKVYVANAGDSRAIIVRNGEIIPMSREFTPETERQRLQLLGFLKPELLGSEFTHLEFPRRVLPKELGQRMLYRDQNMTGWAYKKIELEDLRFPLVCGEGKKARVMATIGVTRGLGDHSLKVCSSTLPIKPFLSCFPEVRVYDLTQYEHCPDDVLVLGTDGLWDVTTDCEVAATVDRVLSAYEPNDHSRYTALAQALVLGARGTPRDRGWRLPNNKLGSGDDISVFVIPLGGPGSYSVRASSPSPL | not soluble
MGSDKIHHHHHHMIWYLEKWRRRWILGRKPIRESVWQSAVDQLPFLHGLTQDEFRQLREWTSIFLHDKKINGVQGLVVTEAMRVMIAVQACLLILKLDPEYYDDWVEVIVYPGKFILDHAYTDETGIVHTRRMVASGESWQAGPVILSWEDVVHVHHESGYNVVIHEFAHKLDMLNGSANGYPPLHSDMDPRIWAVVFSRAYEIFCRQVERGEVTIMDPYAAEDPAEFFAVSSEVFFTRPYRIKQYFPEMYQQLARYYRQDPAARQECETDS | not soluble
